According to patent US20200121803A1 (published 2020):
Changes are numbered by the printed parent chain.

B1: Ab1-CZ (Ab1 conjugated to Bcl-xL inhibitor synthon CZ) (antibody, V domains shown)
VH: EVKLVESGGGLVQPGGSLRLSCATSGFTFTDYYMSWVRQPPGKALEWLGFIRNPANVYTTEYSASVKGRFTISRDNSQSILYLQMNTLRAEDSATYYCARASYGNSEGWFAYWGQGTLVTVSA
VL: DIVMSQSPSSLAVSVGEKVTMSCKSSQNLLYNNNQKNYLAWYQQKPGQSPKLLIYWASTRESGVPDRFTGSGSGTDFTLTISSVKAEDLAVYYCQQYYSYPRTFGGGTKLEIK
B2: Ab4-CZ (Ab4 conjugated to Bcl-xL inhibitor synthon CZ) (antibody, V domains shown)
VH: B1 VH with A23T, P54K, N56T, V57I
VL: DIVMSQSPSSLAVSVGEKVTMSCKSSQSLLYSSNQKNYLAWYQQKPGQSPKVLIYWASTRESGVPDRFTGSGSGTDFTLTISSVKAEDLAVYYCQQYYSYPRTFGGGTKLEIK
B3: Ab5-CZ (Ab5 conjugated to Bcl-xL inhibitor synthon CZ) (antibody, V domains shown)
VH: B1 VH with S35T, P54K, V57G, Q78L, G104V
VL: B1 VL with N28S, N32S, N33S, P46L, Q96H
B4: Ab6-CZ (Ab6 conjugated to Bcl-xL inhibitor synthon CZ) (antibody, V domains shown)
VH: QVQLKESGPGLAQPSQTLSLTCTVSGFSLSTYGVIWLRQPPGKGLEWMGVIWTNGNTNYNSTLKSRLSISRDTSESQVYLQMNSLQTEDTATYYCARHYYDGAYYYGYFDYWGQGVMVTVSS
VL: DIVMTQTPSSQAVSAGEKVTMSCKSSQSLLYSENKKNYLAWYQQKPGQSPKLLIYWASTRESGVPDRFIGSGSGTDFTLTISSVQAEDLAVYYCQQYYYFPYTFGAGTKLELK
B5: CD98 (CL-huAb102)-AAD (antibody, human IgG1, kappa, L234A L235A, V domains shown)
VH: EVQLVESGGGLVQPGGSLRLSCATSGFTFIDYYMSWVRQAPGKGLEWLGFIRNKANRYTTEYSASVKGRFTISRDNSKSILYLQMNSLKTEDTAVYYCTRDRPAWFVYWGQGTLVTVSS
VL: DIVMTQTPLSLPVTPGEPASISCKSSQSLLYSSNQKNYLAWYLQKPGQSPQLLIYWASTRESGVPDRFSGSGSGTDFTLKISRVEAEDVGVYYCQQYYSYPYTFGGGTKVEIKR
modifications: synthon AAD on reduced interchain cysteines (sites not given)
B6: CD98 (CL-huAb102)-ZZ (antibody, human IgG1, kappa, L234A L235A, V domains shown)
VH: B5 VH
VL: B5 VL
modifications: synthon ZZ on reduced interchain cysteines (sites not given)
B7: CD98 (CL-huAb110)-WD (antibody, human IgG1, kappa, L234A L235A, V domains shown)
VH: EVQLVQSGAEVKKPGASVKVSCKASGFTFSDYTMAWVRQAPGQGLEWVATIIYDARGTYYRDAVKGRFTITRDNSTSTLYLELSSLRSEDTAVYYCARQSDDTYYYWGYFDYWGQGTMVTVSS
VL: B5 VL with S22N, Y31F, S33G, E61Q, V91I, Y100S, G106Q, V110L
modifications: synthon WD on reduced interchain cysteines (sites not given)
B8: CD98 (CL-huAb108)-AAD (antibody, human IgG1, kappa, L234A L235A, V domains shown)
VH: B7 VH with D54S, A55G
VL: B5 VL with S22N, Y31F, S33G, E61Q, V91I, S99D, Y100V, G106Q, V110L
modifications: synthon AAD on reduced interchain cysteines (sites not given)
B9: CD98 (CL-huAb110)-AAD (antibody, human IgG1, kappa, L234A L235A, V domains shown)
VH: B7 VH
VL: B5 VL with S22N, Y31F, S33G, E61Q, V91I, Y100S, G106Q, V110L
modifications: synthon AAD on reduced interchain cysteines (sites not given)
B10: CD98 (CL-huAb104)-AAD (antibody, human IgG1, kappa, L234A L235A, V domains shown)
VH: B5 VH with N56Y, R57G
VL: B5 VL
modifications: synthon AAD on reduced interchain cysteines (sites not given)
B11: CD98 (CL-huAb108-ZZ (antibody, human IgG1, kappa, L234A L235A, V domains shown)
VH: B7 VH with D54S, A55G
VL: B5 VL with S22N, Y31F, S33G, E61Q, V91I, S99D, Y100V, G106Q, V110L
modifications: synthon ZZ on reduced interchain cysteines (sites not given)
B12: CD98 (CL-huAb110)- LB (antibody, human IgG1, kappa, L234A L235A, V domains shown)
VH: B7 VH
VL: B5 VL with S22N, Y31F, S33G, E61Q, V91I, Y100S, G106Q, V110L
modifications: synthon LB on reduced interchain cysteines (sites not given)
B13: CD98 (CL-huAb104)-ZT (antibody, human IgG1, kappa, L234A L235A, V domains shown)
VH: B5 VH with N56Y, R57G
VL: B5 VL
modifications: synthon ZT on reduced interchain cysteines (sites not given)
B14: CD98 (CL-huAb108)-CZ (antibody, human IgG1, kappa, L234A L235A, V domains shown)
VH: B7 VH with D54S, A55G
VL: B5 VL with S22N, Y31F, S33G, E61Q, V91I, S99D, Y100V, G106Q, V110L
modifications: synthon CZ on reduced interchain cysteines (sites not given)
B15: CD98 (CL-huAb104)-WD (antibody, human IgG1, kappa, L234A L235A, V domains shown)
VH: B5 VH with N56Y, R57G
VL: B5 VL
modifications: synthon WD on reduced interchain cysteines (sites not given)
B16: CD98 (CL-huAb102)-WD (antibody, human IgG1, kappa, L234A L235A, V domains shown)
VH: B5 VH
VL: B5 VL
modifications: synthon WD on reduced interchain cysteines (sites not given)
B17: CD98 (CL-huAb104)-CZ (antibody, human IgG1, kappa, L234A L235A, V domains shown)
VH: B5 VH with N56Y, R57G
VL: B5 VL
modifications: synthon CZ on reduced interchain cysteines (sites not given)
B18: CD98 (CL-huAb102)-ZT (antibody, human IgG1, kappa, L234A L235A, V domains shown)
VH: B5 VH
VL: B5 VL
modifications: synthon ZT on reduced interchain cysteines (sites not given)
B19: CD98 (CL-huAb110)-ZT (antibody, human IgG1, kappa, L234A L235A, V domains shown)
VH: B7 VH
VL: B5 VL with S22N, Y31F, S33G, E61Q, V91I, Y100S, G106Q, V110L
modifications: synthon ZT on reduced interchain cysteines (sites not given)
B20: CD98 (CL-huAb104)-ZZ (antibody, human IgG1, kappa, L234A L235A, V domains shown)
VH: B5 VH with N56Y, R57G
VL: B5 VL
modifications: synthon ZZ on reduced interchain cysteines (sites not given)
B21: CD98 (CL-huAb102)-LB (antibody, human IgG1, kappa, L234A L235A, V domains shown)
VH: B5 VH
VL: B5 VL
modifications: synthon LB on reduced interchain cysteines (sites not given)
B22: CD98 (CL-huAb102)-CZ (antibody, human IgG1, kappa, L234A L235A, V domains shown)
VH: B5 VH
VL: B5 VL
modifications: synthon CZ on reduced interchain cysteines (sites not given)
B23: CD98 (CL-huAb104)-LB (antibody, human IgG1, kappa, L234A L235A, V domains shown)
VH: B5 VH with N56Y, R57G
VL: B5 VL
modifications: synthon LB on reduced interchain cysteines (sites not given)
B24: CD98 (CL-huAb108)-ZT (antibody, human IgG1, kappa, L234A L235A, V domains shown)
VH: B7 VH with D54S, A55G
VL: B5 VL with S22N, Y31F, S33G, E61Q, V91I, S99D, Y100V, G106Q, V110L
modifications: synthon ZT on reduced interchain cysteines (sites not given)

Biological target: T1, Human CD98, endogenous on HCC38, Molt-4 and Jurkat human cancer cells (human)
T1 chain: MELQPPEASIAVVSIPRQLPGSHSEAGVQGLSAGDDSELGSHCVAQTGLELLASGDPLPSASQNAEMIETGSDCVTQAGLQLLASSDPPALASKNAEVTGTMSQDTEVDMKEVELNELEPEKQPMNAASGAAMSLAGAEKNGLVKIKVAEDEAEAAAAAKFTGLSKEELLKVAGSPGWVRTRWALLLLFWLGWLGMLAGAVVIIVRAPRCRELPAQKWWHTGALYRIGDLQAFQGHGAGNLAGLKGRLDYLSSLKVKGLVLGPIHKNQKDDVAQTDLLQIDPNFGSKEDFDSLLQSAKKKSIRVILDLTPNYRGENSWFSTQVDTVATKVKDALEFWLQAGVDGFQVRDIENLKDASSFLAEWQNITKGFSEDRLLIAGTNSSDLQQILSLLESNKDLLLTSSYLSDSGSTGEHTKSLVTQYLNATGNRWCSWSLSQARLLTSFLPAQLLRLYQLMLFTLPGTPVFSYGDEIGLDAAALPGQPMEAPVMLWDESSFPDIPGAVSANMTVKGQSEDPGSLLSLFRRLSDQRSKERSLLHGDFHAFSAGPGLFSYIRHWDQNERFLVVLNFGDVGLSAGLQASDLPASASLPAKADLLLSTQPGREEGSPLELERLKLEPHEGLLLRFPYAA
Assay: cell-based or functional assay

| Binder | ADC potency, IC50 (nM), HCC38 growth inhibition [nM] | ADC potency, IC50 (nM), Jurkat growth inhibition [nM] | ADC potency, IC50 (nM), Molt-4 growth inhibition [nM] |
| --- | --- | --- | --- |
| B1 | 0.998 | 0.05 | 0.053 |
| B2 | 0.879 | 0.371 | 0.127 |
| B3 | 0.728 | 0.137 | 0.022 |
| B4 | 0.438 | 0.086 | 0.057 |

Biological target: T2, human CD98, endogenously expressed on Molt-4 human acute lymphoblastic leukemia cells (human)
T2 chain: T1 chain
Assay: cell-based or functional assay

| Binder | % Cell Viability at 50 nM [%] | Molt4 IC50 [nM] |
| --- | --- | --- |
| B5 | 2.2 | 0.024 |
| B6 | 6.3 | 0.072 |
| B7 | 10.7 | 0.226 |
| B8 | 1.8 | 0.091 |
| B9 | 1.5 | 0.074 |
| B10 | 2.5 | 0.028 |
| B11 | 5.8 | 0.199 |
| B12 | 1.9 | 0.208 |
| B13 | 3.3 | 0.042 |
| B14 | 1.1 | 0.068 |
| B15 | 16.4 | 0.067 |
| B16 | 14.3 | 0.109 |
| B17 | 0.9 | 0.023 |
| B18 | 3.4 | 0.04 |
| B19 | 3.5 | 0.156 |
| B20 | 6.5 | 0.061 |
| B21 | 14.8 | 0.053 |
| B22 | 1 | 0.015 |
| B23 | 3.5 | 0.062 |
| B24 | 4.5 | 0.144 |
